Assay [1] concerns the target T1, human TLR4 and human MD-2 on transiently transfected HEK 293 cells (human, UniProt O00206 24-839; Q9Y6Y9 19-160).
T1 construct: whole, on cells; also called human TLR4/MD-2 complex
Briefly: FACS on transiently transfected HEK 293 cells. Here is the method:
FIGS. 4A-4L are a series of graphs depicting the specificity of the 18H10 monoclonal antibody for MD-2. The specificity of the 18H10 antibody is shown by flow cytometry analysis of HEK 293 cells transiently transfected with either human TLR4 and human MD-2 (FIG. 4A, FIG. 4E and FIG. 4I); rabbit TLR4 and rabbit MD-2 (FIG. 4B, FIG. 4F and FIG. 4J); human TLR4 and rabbit MD-2 (FIG. 4C, FIG. 4G and FIG. 4K); or rabbit TLR4 and human MD-2 (FIG. 4D, FIG. 4H and FIG. 4L). Cells were incubated with either α-FLAG™ antibody (to detect TLR4 expression); α-C-myc antibody (to detect MD-2 expression) or the 18H10 monoclonal antibody, followed by an APC-coupled α-mouse (H+L) antibody.
FIGS. 12A-12L is a series of graphs depicting the specificity of the 16G7 monoclonal antibody for TLR4. […]
HEK 293 cells were plated in 6 well plates at a density of 2.5×10⁵ cells/well in 2 ml culture medium containing 10% FBS. […] 48 hours post-transfection, cells were stained with the appropriate monoclonal antibody (as indicated in FIGS. 4A-4L) and an APC-coupled goat anti-mouse IgG (H+L) antibody (Molecular Probes) and analyzed using the FACScalibur in the FL-4 channel.

For assay [2], the target named is T2, human TLR4/MD-2 complex on the surface of transfected CHO cells (human, UniProt O00206 24-839; Q9Y6Y9 19-160).
T2 construct: whole, on cells; also called TLR4/MD-2 transfected CHO cells; hTLR4/MD-2 transfected CHO cells
Briefly: FACS of hybridoma supernatant on mock vs. TLR4/MD-2 transfected CHO cells. The procedure:
Mice immunized with CHO cells expressing surface TLR4/MD-2 were monitored for specific serum titers. […] This strategy was chosen in order to minimize the response to non-specific CHO cellular antigens, while simultaneously maximizing the TLR4/MD-2-specific response. Screening by FACS of supernatants from hybridomas resulting from B cell/myeloma fusions was performed on mock transfected vs. TLR4/MD-2 transfected CHO cells.

The target of assay [3] is T1, human TLR4 and human MD-2 on …. Briefly: FACS on transiently transfected HEK 293 cells, 15C1 at 10 µg/ml. The procedure:
(§1) FIGS. 17A-17F are a series of graphs depicting the specificity of the 15C1 monoclonal antibody for TLR4. The specificity of the 15C1 antibody is shown by flow cytometry analysis of HEK 293 cells transiently transfected with either mock vector, i.e., empty vector (FIG. 17A), human TLR4 (FIG. 17B), human TLR4 and human MD-2 (FIG. 17C), rabbit TLR4 and rabbit MD-2 (FIG. 17D), human TLR4 and rabbit MD-2 (FIG. 17E), or rabbit TLR4 and human MD-2 (FIG. 17F). Cells were incubated with the 15C1 monoclonal antibody (10 μg/ml), followed by an APC-coupled α-mouse (H+L) antibody.
(§2) HEK 293 cells were plated in 6 well plates at a density of 2.5×10⁵ cells/well in 2 ml culture medium containing 10% FBS. 16 hours post-plating, cells were transfected with 0.75 μg of the appropriate vector(s) using Fugene™ reagent (Roche) according to the manufacturer's guidelines. 48 hours post-transfection, cells were stained with the appropriate monoclonal antibody (as indicated in FIGS. 4A-4L) and an APC-coupled goat anti-mouse IgG (H+L) antibody (Molecular Probes) and analyzed using the FACScalibur in the FL-4 channel.

Assay [4] deals with T3, human TLR4 alone in transfected HEK 293 cells (human, UniProt O00206 24-839).
T3 construct: whole, on cells; also called TLR4 alone in transfected cell lysates
Described as above. Here is the method:
as §1, §2

For assay [5], the target named is T2, human TLR4/MD-2 complex on the surface …. The assay is described as follows: flow cytometry, mock transfected vs. TLR4/MD-2 transfected cells. In general terms: Flow cytometry measures light scatter and fluorescence of single cells or particles in a stream.
Assay [6] shares this target. The assay is described as follows: flow cytometry on TLR4/MD-2 transfected CHO cells, against an isotype matched control monoclonal antibody. From the text:
FIG. 19 is a graph depicting that the VH and VL nucleotide sequence of 15C1 expressed as a chimeric MAb (“chimeric 15C1”) is capable of binding specifically to the human TLR4/MD-2 complex on the surface of transfected CHO cells. MAb binding to the TLR4/MD-2 complex is shown by flow cytometry using chimeric 15C1 or an isotype matched control monoclonal antibody at the indicated concentration.
(§3) Specific binding of MAb at the indicated concentration was detected using an APC-labeled goat-anti-human IgG (H+L) secondary antibody. An irrelevant isotype-matched IgG1 MAb was used as a control.

Assay [7] deals with T1, human TLR4 and human MD-2 on …. Briefly: FACS on transiently transfected HEK 293 cells, 7E3 at 10 µg/ml. Here is the method: (§4) FIGS. 24A-24F is a series of graphs depicting the specificity of the 7E3 monoclonal antibody for the TLR4/MD-2 complex. The specificity of the 7E3 antibody is shown by flow cytometry analysis of HEK 293 cells transiently transfected with either mock vector (FIG. 24A), human TLR4 (FIG. 24B), human TLR4 and human MD-2 (FIG. 24C), rabbit TLR4 and rabbit MD-2 (FIG. 24D), human TLR4 and rabbit MD-2 (FIG. 24E), or rabbit TLR4 and human MD-2 (FIG. 24F). Cells were incubated with the 7E3 monoclonal antibody (10 μg/ml), followed by an APC-coupled α-mouse (H+L) antibody.
as §2

For assay [8], the target named is T3, human TLR4 alone in transfected HEK 293 …. Briefly: FACS on HEK 293 cells transfected with human TLR4 alone. The procedure: as §4, §2
In assay [9] the target is T2, human TLR4/MD-2 complex on the surface …. Briefly: flow cytometry on TLR4/MD-2 transfected CHO cells, against an isotype matched control MAb.
Excerpt: FIG. 26 is a graph illustrating that the VH and VL nucleotide sequence of 7E3 expressed as a chimeric MAb (“chimeric 7E3”) is capable of binding specifically to the human TLR4/MD-2 complex on the surface of transfected CHO cells. Monoclonal antibody binding to TLR4/MD-2 transfected CHO cells is shown by flow cytometry using chimeric 7E3 or an isotype matched control MAb at the indicated concentrations.
as §3

T2 sequence (O00206 24-839, chain 1 of 2): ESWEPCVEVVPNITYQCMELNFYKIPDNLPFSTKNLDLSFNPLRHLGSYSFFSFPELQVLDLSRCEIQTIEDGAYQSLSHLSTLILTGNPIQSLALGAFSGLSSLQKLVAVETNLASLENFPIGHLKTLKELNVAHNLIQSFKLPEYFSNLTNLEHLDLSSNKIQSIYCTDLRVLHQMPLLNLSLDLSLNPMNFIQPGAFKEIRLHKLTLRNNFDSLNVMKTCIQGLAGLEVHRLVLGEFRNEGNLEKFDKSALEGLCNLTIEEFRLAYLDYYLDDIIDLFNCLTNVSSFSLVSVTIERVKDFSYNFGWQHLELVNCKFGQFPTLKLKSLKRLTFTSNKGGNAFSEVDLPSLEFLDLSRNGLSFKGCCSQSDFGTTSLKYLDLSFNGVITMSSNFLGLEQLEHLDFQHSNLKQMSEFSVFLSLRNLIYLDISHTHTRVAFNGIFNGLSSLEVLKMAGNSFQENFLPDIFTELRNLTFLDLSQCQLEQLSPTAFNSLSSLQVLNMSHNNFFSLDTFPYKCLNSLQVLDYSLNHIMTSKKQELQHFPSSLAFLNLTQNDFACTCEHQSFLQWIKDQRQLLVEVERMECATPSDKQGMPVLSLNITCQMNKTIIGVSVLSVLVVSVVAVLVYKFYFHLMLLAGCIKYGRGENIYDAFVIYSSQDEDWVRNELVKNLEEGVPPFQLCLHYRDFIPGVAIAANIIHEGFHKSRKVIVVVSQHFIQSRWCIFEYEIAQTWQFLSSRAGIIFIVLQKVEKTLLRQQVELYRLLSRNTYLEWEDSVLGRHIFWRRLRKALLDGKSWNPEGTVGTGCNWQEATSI
T2 sequence (Q9Y6Y9 19-160, chain 2 of 2): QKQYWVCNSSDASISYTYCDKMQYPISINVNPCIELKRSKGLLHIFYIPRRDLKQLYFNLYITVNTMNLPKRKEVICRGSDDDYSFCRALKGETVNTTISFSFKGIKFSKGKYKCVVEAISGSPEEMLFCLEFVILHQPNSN
T1 sequence (O00206 24-839, chain 1 of 2): as the sequence (O00206 24-839, chain 1 of 2) above
T1 sequence (Q9Y6Y9 19-160, chain 2 of 2): as the sequence (Q9Y6Y9 19-160, chain 2 of 2) above
T3 sequence (O00206 24-839): as the sequence (O00206 24-839, chain 1 of 2) above

B1: 16G7 monoclonal antibody (antibody, IgG1, V domains shown)
VH: QVKLQESGAELMKPGASVKISCKATGYKFSDYWIEWIKQRPGHGLEWIGEILPGSGSTNYNEDFKDKATFTSDTSSNTAYMQLSSLTSEDSAVYYCAKEERAYYFGYWGQGTTVTVSS
VL: DVLMTQTPLSLPVSLGDQASISCRSSQSLENSNGNTYLNWYLQKPGQSPQLLIYRVSNRFSGVLDRFSGSGSGTDFTLKISRVEAEDLGVYFCLQVTHVPPTFGAGTKLELKR
For the molecule B1, the binding result in assay [1] and in assay [2] was “binds” throughout.

B2: 15C1 monoclonal antibody (antibody, IgG1, V domains shown)
VH: DVQLQESGPDLIQPSQSLSLTCTVTGYSITGGYSWHWIRQFPGNKLEWMGYIHYSGYTDFNPSLKTRISITRDTSKNQFFLQLNSVTTEDTATYYCARKDPSDGFPYWGQGTLVTVSA
VL: DIVMTQSPATLSVTPGDRVSLSCRASQSISDHLHWYQQKSHESPRLLIKYASHAISGIPSRFSGSGSGTDFTLSIKSVEPEDIGVYYCQNGHSFPLTFGAGTKLELKR
notes: also called 15C1 MAb; 15C1 mouse MAb
For B2, the binding result in assay [3], in assay [4] and in assay [5] was “binds” in each case.

B3: chimeric 15C1 MAb (antibody, V domains shown)
VH: B2 VH
VL: B2 VL
notes: also called chimerical 15C1
On to B3, for which the binding result in assay [6] was “binds”.

B4: 7E3 monoclonal antibody (antibody, IgG1, V domains shown)
VH: QVTLKESGPGILQPSQTLSLTCSFSGFSLTTYNIGVGWIRQPSGKGLEWLAHIWWNDNIYYNTVLKSRLTFSKDTSNNQVFLKIASVDIADTATYYCIRMAEGRYDAMDYWGQGTSVTVSS
VL: AIQMTQSTSSLSASLGDRVTINCRASQDITNYLNWYQQKPDGTVRLLIYYTSKLHSGAPSRFSGRGSGTDYSLTISNLEQEDIATYFCQQGNTFPWTFGGGTKLEIKR
Consider B4, for which the binding result in [7] is reported as “binds”; in [8], “no binding (tested: 10 µg/ml)”; in assay [5] it was “binds”.

B5: chimeric 7E3 MAb (antibody, V domains shown)
VH: B4 VH
VL: B4 VL
As to B5, the binding result in assay [9] is “binds”.

B6: chimeric 18H10 MAb (antibody, V domains shown)
VH: QVQLQQSGADLVRPGALVKLSCTASGFNIKDSYIHWVKKRPEWGLEWIGWTDPENVNSIYDPRFQGKASITADTSSNTAFLQLTSLTSEDTAVYYCARGYNGVYYAMDYWGQGTTVTVSS
VL: QIVLTQSPSIMSASLGEEITLTCSASSSVIYMHWYQQKSGTSPKLLIYRTYNLASGVPSRFSGSGSGTFYSLTISSVEAEDAADYYCHQWSSFPYTFGGGTKLEIKR
Consider B6, for which the binding result in assay [9] is “binds”.

(Values after patent US20180282426A1 (NOVIMMUNE S A, published 2018).)
